T1: Halo-Kar3 (full-length Kar3 fused to a HaloTag) (S. cerevisiae (S288c), UniProt P17119 1-729, HaloTag TMR ligand (tetramethylrhodamine) or HaloTag Alexa488 ligand covalently bound to the HaloTag)
T1 construct: methods and legends say amino-terminal; also called Kar3-Halo; Kar3-HALO; not shown: HaloTag, N-terminal, kept
T1 sequence (looked up): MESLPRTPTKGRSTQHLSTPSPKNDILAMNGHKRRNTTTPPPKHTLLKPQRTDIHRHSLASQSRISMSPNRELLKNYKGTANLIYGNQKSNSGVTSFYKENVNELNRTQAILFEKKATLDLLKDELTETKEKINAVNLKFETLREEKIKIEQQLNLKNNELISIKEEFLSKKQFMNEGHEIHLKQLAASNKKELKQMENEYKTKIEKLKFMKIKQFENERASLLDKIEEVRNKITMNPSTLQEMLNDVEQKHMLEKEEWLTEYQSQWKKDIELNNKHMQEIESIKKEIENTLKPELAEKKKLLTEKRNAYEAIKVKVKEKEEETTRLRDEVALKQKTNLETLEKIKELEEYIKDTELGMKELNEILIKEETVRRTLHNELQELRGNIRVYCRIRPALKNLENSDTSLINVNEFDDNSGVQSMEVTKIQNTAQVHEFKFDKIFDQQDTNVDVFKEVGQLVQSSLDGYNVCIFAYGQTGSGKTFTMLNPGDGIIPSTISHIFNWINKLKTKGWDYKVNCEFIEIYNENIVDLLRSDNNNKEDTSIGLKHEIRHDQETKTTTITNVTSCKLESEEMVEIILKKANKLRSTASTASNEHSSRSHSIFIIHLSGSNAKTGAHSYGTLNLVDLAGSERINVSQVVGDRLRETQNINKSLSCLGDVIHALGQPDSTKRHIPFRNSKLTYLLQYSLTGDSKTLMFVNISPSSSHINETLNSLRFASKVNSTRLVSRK

B1: Cik1-1xFLAG (full-length Cik1, aa 1–594) (natural protein, S. cerevisiae (S288c), UniProt Q01649 1-594, looked up)
chain: MNNSKIPKLSFHSDPNNVTRDFPKTKRQKVQKREMDMILTPNNNKLNILHSSGSGIRRCYTDDTSATYTKKLTFGGDPKIIERVKNNERKVRKDIDSLLNAISEIEKESVRIHARELPAITLELDAKVKACRELQNEIDGLSTEMDLKDNQCDLQRKNVELSSKNIVSMHAVKVQEFENDLEEELSNAKREWTYKLMEVENLKPDERLTDEMRQLKTEFEEVNRKLFILQNENENECKNYKKELDKKFEIFKKVKNDARIELDGEQERLSKVLKDLQDTHGELKENIKTCRDEFNDFEKRIGEAEVNFHSMELAVVPLKKKLASTSQALTQVQEEKKQVEGEANNWKKKYVNELEKVQQELYTRQNLATSIEEIKGYTRCFAYANERQMPDEFHINYVDRCICENSGEKRVQVFDRVVLEEIHKDHKRLYNECIPFLEKYISKLINCSIIVVSQQPTAPMKKTLLKQLIEQYGENYKMTLNILHLDGSIKHSDVGLDNPTEIRDLSQDEECMNILTLDTKLGKDEESHSMNIYIGSMSTVQLNRELDDAPSVLSHILTKTKQCFVFKINAGENIEKALALAGKLKRTITLPQLD
notes: source: if needed MonoS; not shown: 1xFLAG, C-terminal, kept
B2: Cik1–Kar3 heterodimer (full-length Cik1-1xFLAG with Halo-Kar3) (complex, S. cerevisiae (S288c))
chain 1: T1 sequence (looked up)
chain 2: B1 chain
modifications: HaloTag TMR ligand or HaloTag Alexa488 ligand covalently bound to the HaloTag (imaging experiments)
notes: also called Cik1–Kar3-Halo; Cik1–Halo–Kar3; source: if needed MonoS; not shown: HaloTag, N-terminal, kept
B3: GST-Bim1^185–344 (domain or fragment, budding yeast, UniProt P40013 185-344, looked up)
chain: IQAELTKSQETIGSLNEEIEQYKGTVSTLEIEREFYFNKLRDIEILVHTTQDLINEGVYKFNDETITGHGNGNGGALLRFVKKVESILYATAEGFEMNDGEDELNDKNLGEHGTVPNQGGYANSNGEVNGNEGSNHDVIMQNDEGEVGVSNNLIIDEETF
notes: also called C-terminal EB homology domain of Bim1; source: recombinant; expressed and purified as described previously (Zimniak et al., 2009)
B4: GST-Bim1^FL (natural protein, budding yeast, UniProt P40013 1-344, looked up)
chain: MSAGIGESRTELLTWLNGLLNLNYKKIEECGTGAAYCQIMDSIYGDLPMNRVKFNATAEYEFQTNYKILQSCFSRHGIEKTVYVDKLIRCKFQDNLEFLQWLKKHWIRHKDESVYDPDARRKYRPIITNNSATKPRTVSNPTTAKRSSSTGTGSAMSGGLATRHSSLGINGSRKTSVTQGQLVAIQAELTKSQETIGSLNEEIEQYKGTVSTLEIEREFYFNKLRDIEILVHTTQDLINEGVYKFNDETITGHGNGNGGALLRFVKKVESILYATAEGFEMNDGEDELNDKNLGEHGTVPNQGGYANSNGEVNGNEGSNHDVIMQNDEGEVGVSNNLIIDEETF
notes: Bim1, the EB1 homologue of budding yeast, full length; also called full-length Bim1; source: recombinant; expressed and purified as described previously (Zimniak et al., 2009)
B5: Bim1 (as used in analytical size exclusion chromatography) (natural protein, budding yeast, UniProt P40013 1-344, looked up)
chain: B4 chain
notes: Bim1, the EB1 homologue of budding yeast; source: recombinant; expressed and purified as described previously (Zimniak et al., 2009)

Columns and labels:
[1] = target: T1, Halo-Kar3 (full-length Kar3 fused to a …); assay: co-IP; two subunits co-overexpressed in S. cerevisiae; FLAG-tagged subunit bound to M2 anti-FLAG affinity agarose (lysis buffer 300 mM NaCl, washes 150 mM NaCl), HaloTag labelled on the resin, eluted with 3xFLAG peptide; Coomassie SDS-PAGE and fluorescence of the Halo-Kar3 subunit; conditions: partners not purified
[2] = target: T2, recombinant full-length Ndc80 complex (Ndc80p-6xHis/Nuf2p-EGFP and Spc24p/6xHis/Spc25p) (UniProt P40460 1-691; P33895 1-451; Q04477 1-213; P40014 1-221); assay: in vitro recruitment to microtubules (TIRF microscopy); bulk recruitment assay in the absence of nucleotide; TMR-labeled Kar3 motors and fluorescently labeled recombinant Ndc80 complex on surface-immobilised taxol-stabilized microtubules; conditions: both partners purified
T2 construct: Ndc80p, budding yeast; Nuf2p, budding yeast; Spc24p, budding yeast; Spc25p, budding yeast; also called Ndc80-eGFP complex; Ndc80 kinetochore complex; source: recombinant; expression and purification as described previously (Lampert et al., 2013; Lampert et al., 2010); copies: + + +
T2 sequence (P40460 whole entry, chain 1 of 4): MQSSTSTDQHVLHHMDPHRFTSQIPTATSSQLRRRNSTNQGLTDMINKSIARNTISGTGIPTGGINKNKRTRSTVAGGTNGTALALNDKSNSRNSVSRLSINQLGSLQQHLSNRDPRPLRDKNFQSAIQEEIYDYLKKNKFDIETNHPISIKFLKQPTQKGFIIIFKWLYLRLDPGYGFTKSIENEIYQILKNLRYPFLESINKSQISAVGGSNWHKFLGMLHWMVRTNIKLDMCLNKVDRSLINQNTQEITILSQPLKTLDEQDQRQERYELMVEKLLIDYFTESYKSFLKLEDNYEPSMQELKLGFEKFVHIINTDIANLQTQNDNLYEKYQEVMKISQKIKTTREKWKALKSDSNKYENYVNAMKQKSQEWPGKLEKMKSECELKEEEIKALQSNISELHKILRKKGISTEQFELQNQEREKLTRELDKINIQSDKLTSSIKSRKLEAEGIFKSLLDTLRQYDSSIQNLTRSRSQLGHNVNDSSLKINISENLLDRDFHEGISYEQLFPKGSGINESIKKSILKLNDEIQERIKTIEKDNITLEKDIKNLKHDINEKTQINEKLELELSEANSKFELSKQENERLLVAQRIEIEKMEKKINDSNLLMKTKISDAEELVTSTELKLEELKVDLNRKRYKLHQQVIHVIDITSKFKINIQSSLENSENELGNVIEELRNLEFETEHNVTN
T2 sequence (P33895 whole entry, chain 2 of 4): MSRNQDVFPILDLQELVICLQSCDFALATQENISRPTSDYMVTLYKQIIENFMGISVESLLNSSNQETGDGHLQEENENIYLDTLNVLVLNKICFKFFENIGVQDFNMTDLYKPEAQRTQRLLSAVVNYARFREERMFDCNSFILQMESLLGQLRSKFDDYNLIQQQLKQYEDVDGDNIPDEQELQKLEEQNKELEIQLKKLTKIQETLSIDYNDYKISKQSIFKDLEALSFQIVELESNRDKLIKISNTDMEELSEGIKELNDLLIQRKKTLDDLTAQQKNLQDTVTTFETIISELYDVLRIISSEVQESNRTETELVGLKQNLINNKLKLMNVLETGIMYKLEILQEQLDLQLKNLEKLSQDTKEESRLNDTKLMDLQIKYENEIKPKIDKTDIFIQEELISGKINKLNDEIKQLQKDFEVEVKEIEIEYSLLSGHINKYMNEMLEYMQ
T2 sequence (Q04477 whole entry, chain 3 of 4): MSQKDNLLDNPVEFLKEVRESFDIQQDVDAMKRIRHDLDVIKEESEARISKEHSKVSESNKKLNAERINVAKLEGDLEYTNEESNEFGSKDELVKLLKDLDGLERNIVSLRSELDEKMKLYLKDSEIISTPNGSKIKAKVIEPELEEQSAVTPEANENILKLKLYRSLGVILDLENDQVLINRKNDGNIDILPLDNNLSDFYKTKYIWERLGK
T2 sequence (P40014 whole entry, chain 4 of 4): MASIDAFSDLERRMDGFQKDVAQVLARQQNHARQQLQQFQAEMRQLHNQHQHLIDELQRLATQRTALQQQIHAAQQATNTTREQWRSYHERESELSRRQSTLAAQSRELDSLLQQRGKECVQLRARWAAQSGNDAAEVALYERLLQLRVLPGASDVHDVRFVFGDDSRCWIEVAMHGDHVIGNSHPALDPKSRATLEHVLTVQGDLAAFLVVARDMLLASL

[3] = target: B2; assay: pull-down; 0.1–1 μM GST-tagged bait immobilised on glutathione sepharose; binding partner at a constant 0.5–1 μM; 25 mM Hepes pH 7.2, 250 mM NaCl, 1 mM MgCl2, 1 mM EGTA, 0.5 mM DTT, 0.05% NP-40; 1 hr at 4°C; SDS-PAGE, Coomassie; conditions: both partners purified
[4] = target: B2; assay: SEC; analytical size exclusion chromatography of Cik1–Kar3 and Bim1 individually or in combination; conditions: both partners purified

Binder: B1
binding result [1]: binds

Binder: B2
binding result [2]: binds

Binder: B3
binding result [3]: binds

Binder: B4
binding result [3]: binds

Binder: B5
binding result [4]: binds

Reference: publication PMC4338441, “Non-catalytic motor domains enable processive movement and functional diversification of the kinesin-14 Kar3” (eLife, 2015)
